In doi:10.1101/2022.12.13.520362 (bioRxiv, 2022):

Experiments:
[1] = target: empty procapsid shells of bacteriophage P22 (WT coat protein) (bacteriophage P22, UniProt P26747 1-430); assay: co-sedimentation
[2] = target: bacteriophage P22 coat protein monomers (WT) (bacteriophage P22, UniProt P26747 1-430); assay: weak affinity chromatography

Binder | binding result [1] | binding result [2]
his6-tagged WT scaffolding protein of bacteriophage P22 (gp8) (natural protein, UniProt P26748 1-303, looked up) MEPTTEIQATEDLTLSGDHAAASADSLVVDNANDNAGQEEGFEIVLKDDETAPKQDPAKNAEFARRRIERKRQRELEQQMEAVKRGELPESLRVNPDLPPQPDINAYLSEEGLAKYDYDNSRALAAFNAANTEWLMKAQDARSNAVAEQGRKTQEFTQQSAQYVEAARKHYDAAEKLNIPDYQEKEDAFMQLVPPAVGADIMRLFPEKSAALMYHLGANPEKARQLLAMDGQSALIELTRLSERLTLKPRGKQISSAPPADQPITGDVSAANKDAIRKQMDAAASKGDVETYRKLKAKLKGIR | binds | binds
his6-tagged L245C scaffolding protein of bacteriophage P22 (natural protein, UniProt P26748 1-303, looked up) MEPTTEIQATEDLTLSGDHAAASADSLVVDNANDNAGQEEGFEIVLKDDETAPKQDPAKNAEFARRRIERKRQRELEQQMEAVKRGELPESLRVNPDLPPQPDINAYLSEEGLAKYDYDNSRALAAFNAANTEWLMKAQDARSNAVAEQGRKTQEFTQQSAQYVEAARKHYDAAEKLNIPDYQEKEDAFMQLVPPAVGADIMRLFPEKSAALMYHLGANPEKARQLLAMDGQSALIELTRLSERCTLKPRGKQISSAPPADQPITGDVSAANKDAIRKQMDAAASKGDVETYRKLKAKLKGIR | binds | 
